Measured values from US20260125649A1, “MEDIUM COMPOSITION AND METHOD FOR CULTURING MESENCHYMAL STEM CELLS” (ACADEMIA SINICA, priority 2018, published 2026).
Where “and” joins values, the source holds several entries; their conditions need not be identical. Equal entries are not always repeated.

Legend:
[1] = system: TACE (Ser435), PS2 (Ser327), ERK1/2; assay: Western blotting of phosphorylation of TACE, Presenilin 2 and ERK1/2; format: cell-based, human
Method: FIG. 9. EpEX induces the phosphorylation and activity of TACE and γ-secretase. MSCs were stimulated by EpEX for the indicated times, and the activity of TACE and γ-secretase were detected. MSCs were stimulated by EpEX (3 μg/mL) for the indicated times. Western blot analysis was performed to detect the phosphorylation of TACE and Presenilin 2.
FIG. 10. EpEX and EGF induce the phosphorylation of TACE, ERK1/2 and PS2. MSCs were treated with either EGF, EpEX, or co-treated with EGF and EpEX for 5 min. The phosphorylation of ERK1/2 was examined by Western blotting with specific antibodies. […] The phosphorylation of ERK1/2, TACE (Ser435), PS2 (Ser327) were examined by Western blotting with specific antibodies.
Western blotting was performed as previously described (Takahashi et al., 2003). Cells were lysed in lysis buffer (150 mM NaCl, 50 mM Tris-HCl (pH 7.4), 1% Nonidet P-40), containing a protease inhibitor mix (Roche Applied Science). Nuclear fractions and cytoplasmic fractions were separated by the Nuclear/Cytosol Fractionation Kit according to the manufacturer's instructions (BioVision Inc., Milpitas, CA, USA). Protein samples were separated by SDS-PAGE under denaturing conditions, and transferred to a PVDF membrane (Millipore). To probe for pluripotency markers, membranes were incubated with the indicated antibodies against Oct4 (1:1000, Abcam, Cambridge, UK), Nanog (1:1000, Genetex), Lin28 (1:1000, Genetex) or Sox2 (1:1000, Genetex). The CDK and cyclin antibodies were from the CDK and Cyclin Antibody Sampler Kits (Cell Signalling Technology, #9868 and #9869 respectively), including antibodies against cylin D1, D2, E1, and CDK4, CDK9 (1:1000). EpCAM (1:1000, Genetex), phospho-EGFR (1:1000, Cell signaling), EGFR (1:1000, Cell signaling), HMGA2 (1:1000, Cell signaling) or GAPDH (1:10000, Abcam) were also used. After incubation with primary antibody, the membranes were incubated with horseradish peroxidase (HRP)-conjugated secondary antibodies, goat anti-mouse IgG (1:3000, Santa Cruz, CA) or goat anti-rabbit IgG (1:3000, Santa Cruz, CA). […]

[2] = system: human bone marrow-derived MSCs; assay: MSC doubling time (cell number counted); format: cell-based
Method: The proliferation of MSCs was examined by measuring doubling time. MSCs were treated with EpEX (3 μg/mL) for 24 and 48 h. Cell number was counted and then doubling time was calculated. MSCs were treated with EpEX (3 μg/mL) for the indicated times. After treatment, protein expression of cell cycle regulators (cyclin D1, cyclin D2, cyclin D3, cyclin E1, CDK4 and CDK9) and pluripotency factors (Oct4, Sox2, c-Myc, and Lin28) was examined by Western blotting.
All experiments with primary human cells were conducted in accordance with relevant guidelines and regulations. Human primary bone marrow mesenchymal stem cells (BMMSCs) were purchased from LONZA and were cultured with Dulbecco's Modified Eagle Media-low glucose (DMEM-LG) medium containing 16.6% FBS, 1 mM L-glutamine (Invitrogen), 100 μg/ml Penicillin/Streptomycin (Gibco). All cells were cultured at 37° C. and 5% CO2. All experiments on primary cells were performed within 10 passages.
We used human bone marrow-derived MSCs to study the effects of EpEX and first investigated whether EpEX promotes cell proliferation of MSCs. […] Next, we examined the effect of EpEX on cell cycle progression by flow cytometry with propidium iodide (PI) staining. […] EpCAM has been reported to enhance cell cycle progression through upregulation of the proto-oncogene c-Myc and cyclin A/E (Munz et al., 2004). […]

[3] = system: MSCs; assay: Osteogenesis of MSCs by Alizarin Red S staining; format: cell-based, human
Method: Calcium precipitation was measured by Alizarin Red S (ARS) staining to probe the efficiency of osteogenesis. […] Quantification of osteogenesis, as measured by ARS staining, is shown for each group. MSCs were induced by osteogenetic medium and treated with EpEX at indicated doses. The gene expression of RUNX2 was examined by qPCR. […] ARS staining was performed to check the efficiency of osteogenesis. MSCs were pretreated with let-7 inhibitor and then treated with EpEX for 14 days during osteo-induction. ARS staining was performed to check the efficiency of osteogenesis. […] RUNX2 gene expression was measured by qPCR. MSCs were pretreated with let-7 inhibitor and induced by EpEX. RUNX2 gene expression was examined by qPCR. […] Upon EpEX stimulation, phosphorylation of EGFR-STAT3 signaling is induced and subsequently upregulates the level of Lin28 which inhibits let-7. When let-7 is inhibited, the transcription factor, HMGA2, is increased and binds to the promoters of Oct4 and Sox2. The EpEX-mediated increases of Oct4 and Sox2 can promote osteogenesis of MSCs during osteo-induction. […]
After 14 days of osteogenic differentiation, cells were fixed with ice-cold 70% ethanol at −20° C. for 1 h and then washed with PBS. […] For quantification, the cells were incubated with 1 mL of […] buffer for 1 h to extract ARS, and the O.D. at 550 nm was recorded.

B1: EpEX: extracellular domain of human EpCAM, 265 amino acids in length (SEQ ID NO: 2) (protein, listed as Homo sapiens)
chain: MAPPQVLAFGLLLAAATATFAAAQEECVCENYKLAVNCFVNNNRQCQCTSVGAQNTVICSKLAAKCLVMKAEMNGSKLGRRAKPEGALQNNDGLYDPDCDESGLFKAKQCNGTSMCWCVNTAGVRRTDKDTEITCSERVRTYWIIIELKHKAREKPYDSKSLRTALQKEITTRYQLDPKFITSILYENNVITIDLVQNSSQKTQNDVDIADVAYYFEKDVKGESLFHSKKMDLTVNGEQLDLDPGQTLIYYVDEKAPEFSMQGLK
- phosphorylation of TACE ([1]; EpEX 3 μg/mL): induced
- phosphorylation of γ-secretase (Presenilin 2) ([1]; EpEX 3 μg/mL): induced
- phosphorylation of ERK1/2 ([1]; EpEX, EGFR-dependent): can induce
- MSC doubling time ([2]; P3, EpEX 3 μg/mL (0 μg/mL: 17.6 ± 0.3 h)): 16.1 ± 0.1 h
- MSC doubling time ([2]; P9, EpEX 3 μg/mL (0 μg/mL: 38.2 ± 1.7 h)): 22.5 h and 22.5 ± 0.4 h
- osteogenesis compared to controls ([3]; EpEX treatment during osteo-induction, 14 days, ARS staining): 4 fold
- calcium precipitation (ARS staining) ([3]; EpEX, Day 14, vs non-treated controls): higher
